The series in a line: soluble on expression in E. coli; label from the status in PepcDB or PDB records.
On to “MSLHSYDYDAIVIGSGPGGEGAAMGLVKQGARVAVIERYQNVGGGCTHWGTIPSKALRHAVSRIIEFNQNPLYSDHSRLLRSSFADILNHADNVINQQTRMRQGFYERNHCEILQGNARFVDEHTLALDCPDGSVETLTAEKFVIACGSRPYHPTDVDFTHPRIYDSDSILSMHHEPRHVLIYGAGVIGCEYASIFRGMDVKVDLINTRDRLLAFLDQEMSDSLSYHFWNSGVVIRHNEEYEKIEGCDDGVIMHLKSGKKLKADCLLYANGRTGNTDSLALQNIGLETDSRGQLKVNSMYQTAQPHVYAVGDVIGYPSLASAAYDQGRIAAQALVKGEANAHLIEDIPTGIYTIPEISSVGKTEQQLTAMKVPYEVGRAQFKHLARAQIVGMNVGTLKILFHRETKEILGIHCFGERAAEIIHIGQAIMEQKGGGNTIEYFVNTTFNYPTMAEAYRVAALNGLNRLFEGHHHHHH”, for which the “soluble on expression in E. coli” value is reported as “soluble”.
For “MGSDKIHHHHHHMGIMENPLIKPAALENTHQDGPHPQAEEPYYLPFGDEVSIFTQCHRRHLAVMLKGPTGCGKTRFVEHMAWRMKRPLIIVSCHDDLTAADLVGRFLIRDNATIWQDGPLTRAVRVGAICYLDEVVEARQDAVVVIHPLTDYRRVLPIDKTGELIEATPGFQLVISYNPGYQHVTKDLKPSTRQRFVALDFDFPPPEREAEIVIHESGAQPAVAYDLVALGGRIRGLADRGLAEVPSTRLLVATARLIANGIPPRLACHVALVSPLSDDPALVAAMRDLVDATLLD”, the “soluble on expression in E. coli” value is given as “not soluble”.
Consider “KKVIIIINPTSGGEAALDYKESLESKAKEYFDHVETKITQRAKDATHFAQNASEEKYDAVIVFGGDGTVNEVISGISEKNHIPKLGIIPGRTGNLITKLLEIN”, for which the “soluble on expression in E. coli” value is “not soluble”.
In the case of “MGSDKIHHHHHHMRASVLSDWLAQRLDRGNGQPIYRQLHRLLQQAILTRELPPGSKVPSSRLLAQELGIGRNTVTQVYEQLVLEGYVSSATGRGTFVADSAPDEIVGVPDAAAPDTSAESSPQQAKRALSTRGARLIAGAGVSKRQWGAFMPGVPDVTKFPARVWSRLHNKYWRRLRPDLLTYAPGGGLASLRHALADYLRTSRSVRCTPEQIIITTGIHQSVDLAVRLLSDPGDVIWTEDPCYWGVRSVLHVSGLQSRPIAVDEEGINPSADDLAQPPKLMLVTPSHQYPLGMVMSLARRRMLLEYARQNQCWIIEDDYDSEYRYGSRPLASLQGLDTSGQVIYVGSFGKTLFPGLRIGYLVVPEALAESFATASAELYREGQLLQQAMLAEFIAEGHFTSHIRRMRTLYGQRRQTLLDAAAHRYGDALPAVGGDAGLHLVMQLPEGSDDRQVAATALERNIVVRPLSGYYAQPSLAPSGLLIGYACVPDEEIAPAFNTLADAIDVTLPEFA”, the “soluble on expression in E. coli” value is reported as “not soluble”.
With “MSITYSAISFSGFSPKSVPFAIHSVTRRQFLNPNTFYRFGFSPSLQGSSIEFSLQLNSRVVLSKERRSLPLVVRNDRPQNEDLPKQYTRREKKPFPVPIVDLRRAARERVKNNKDKPKRPLPPPKNGMVVKSLVPLAYKVYNARIRLINNLHRLMKVVRVNACGWCNEIHVGPYGHPFKSCKGPNTSQRKGLHEWTNSVIEDVIVPLEAYHLFDRLGKRIRHDERFSIPRVPAVVELCIQGGVEIPEFPAKRRRKPIIRIGKSEFVDADETELPDPEPQPPPVPLLTELPVSEITPPSSEEETVSLAEETLQAWEEMRAGAKKLMRMYRVRVCGYCPEVHVGPTGHKAQNCGAFKHQQRNGQHGWQSAVLDDLIPPRYVWHVPDVNGPPMQRELRSFYGQAPAVVEICAQAGAVVPEHYRATMRLEVGIPSSVKEAEMVV” the entry was “soluble”; with “MTQTNNRLFDEIGRLMNDAAGAAQGVKREIDGVVRSQAEKILRDLDLVKREEFEAFKEMVRLTREENEALKARIAALEARQGGGSEPPTALA”, “not soluble”; with “MMRLANGIVLDKDTTFGELKFSALRREVRIQNEDGSVSDEIKERTYDLKSKGQGRMIQVSIPASVPLKEFDYNARVELINPIADTVATATYQGADVDWYIKADDIVLTKDSLEHHHHHH”, “not soluble”.
For the sequence “MKIRTSMIALSLAALLSGCQSLNTEGLMQSGAQAFQAATLNDADVKALSEKSCVEMDQKAQIASADSQYGKRMAKIAAALGDNINGTPANYKVYVTKDVNAWAMANGCIRVYSGLMDMMTDNEVEGVVGHEMGHVALGHTRKAMQVAYGTTALRTAIASAGGVVGTLSQSQLADLGEKLVNAQFSQKQESEADDYSFDLLKKRGIDPNGLVTSFEKLASMEAGRNSSMFDDHPSSQARAEHIRQRIAAEK”, the “soluble on expression in E. coli” value was “not soluble”.
As for “MTFTASSSSCAITESPVVVALDYHERDKALAFVDKIDPRDCRLKVGKEMFTLFGPQLVRDLQQRGFDVFLDLKFHDIPNTTARAVAAAADLGVWMVNVHASGGARMMAAARDALAPFSKDAPLLIAVTVLTSMETSDLHDLGVTLSPAEHAERLARLTQQCGLDGVVCSAQEAVRFKQAFGAAFKLVTPGIRPAGSEAGDQRRIMTPEQALSAGVDYMVIGRPVTQSVDPAQTLKDINASLKREA”, the entry is “not soluble”.
Consider “MGSDKIHHHHHHMRSDLRIAIVANEKRGDGNIELRLQSKGYQVVTLTTPSSVMGFIYSDPPDVILMDLSSPDEAFLGIIRSLKDDFFFSTIPVIGMMPEPAAEFFDWDEYPLDDFVTFPLNFRELFTRIVLSLRRLRRVFDNNPLTRLPGNTSIQRAIEQTVGKPMAVCYVDINHFKQYNDVYGFAHGDEVLRMLGRIMSNAVKDAGDGFAGHIGGDDFVFIVPFDQAEVVAGRIIANFTAVVSELFNEEEKRNGFFLAHDRKGNEEKVPLMGVAIAIVPTDSPKIGHYAKVAEVAAELKTLAKQSHKSCFVVDRRKY”, for which the “soluble on expression in E. coli” value is “not soluble”.
“KVLKIPREKIIEKGFTDPREYFASIEVDGGRPPKPGEFRDILVETVREVMGVEVVEAGLSKEEKIIWDRYKEMLTSSRFKMRRSTRLFKASMPPGTRYGFAQIKYRKLVQASVAVDSEGIIRAAMITGDFQLIPADADEEIVKAILGFKHSQYGEAADRVRRLVDERGIMIIGASAEEFIKPV”: the “soluble on expression in E. coli” value is listed as “soluble”.
With “MLEFQTPELLRMPLQELCLHTKLLAPVNCPIADFLMKAPEPPPALIVRNAVQMLKTIDAMDTWEDLTELGYHLADLPVEPHLGKMVLCAVVLKCLDPILTVACTLAYRDPFVLPTQASQKRAAMLCRKRFTAGAFSDHMALLRAFQAWQKARSDGWERAFCEKNFLSQATMEIIIGMRTQLLGQLRASGFVRARGGGDIRDVNTNSENWAVVKAALVAGMYPNLVHVDRENLVSTGPKEKKVRFHPASVLSQPQYKKIPPANGQAAAIKALPTDWLIYDEMTRAHRIANIRCCSAVTPVTILVFCGPARLASNALQEPSSFRVDGIPNDSSDSEMEDKTTANLAALKLDEWLHFTLEPEAASLLLQLRQKWHSLFLRRMRAPSKPWSQVDEATIRAIIAVLSTEEQSAGLQQPSGIGQRPRPMSSEELPLASSWRSNNSRKSSADTEFSDECTTAERVLMKSPSPALHPPRKYKDRGILHPKRGTEDRSDQSSLKSTDSSSYPSPCASPSPPSSGKGSKSPSPRPNMPVRYFIMKSSNLRNLEISQQKGIWSTTPSNERKLNRAFWESSIVYLVFSVQGSGHFQGFSRMSSEIGREKSQDWGSAGLGGVFKVEWIRKESLPFQFAHHLLNPWNDNKKVQISRDGQELEPQVGEQLLQLWERLPLGEKNTTD” the entry was “soluble”; with “SSFVGENSGVKMGSEDWEKDEPQCCLEDPAVSPLEPGPSLPAMNFVHTSPKVKNLNPKKFSIHDQDHKVLVLDSGNLIAVPDKNYIRPEIFFALASSLSSASAEKGSPILLGVSKGEFCLYCDKDKGQSHPSLQLKKEKLMKLAAQKESARRPFIFYRAQVGSWNMLESAAHPGWFICTSCNCNEPVGVTDKFENRKHIEFSFQPVCKAEMSPSEVSD”, “soluble”; with “MGHHHHHHSHMGLSYQEELTLPFELCDVKSDIKLPLLLDYCLMVSGRQSAQLGRSNNNLLVDYKLVWIVTDYEITIHRLPHFQETIIIETKALSYNKFFCYRQFYIYDQEGGLLVDILAYFALLNPDTRKVATIPEDLVAPFETDFVKKLHRVPKMPLLEQSIDRDYYVRYFDIDMNGHVNNSKYLDWMYDVLGCEFLKTHQLLKMTLKYVKEVSPGGQITSSYHLDQLTSYHQIISDGQLNAQAMIEWRAIKPIESETD”, “not soluble”.
As for “MGSDKIHHHHHHMNESSTHDSVADDPTEVSTDTVLDIALSLFSELGFSDAKLEAIAKKSGMSKRMIHYHFGDKRGLYICCLEEAVRRLRPTAEEMYLASAVPVEGVRTIVEAVFHRYVQHPEAVRMLQMENLHHYGKVAEASPLSDQSAITLQLDRLLMLGQDAGAFRPGISAQDVFTLIASIAVFRINSRSTTLNLYGIDMMNGDNTDGMRRMAVDTVLAFLTSNLKSADEDSYLSRPLLSTVTEHVDEEGSYEVAADPFS”, the entry is “not soluble”.
For “MGSDKIHHHHHHMYKLNQNETPLFNALMEYVNRDTIPFHVPGHKKGNGIDKEFKNFIGENPFKIDVTVFKLVDSLHHPTGPIKKAQELAADAYGSKAAFYSVNGTSGAIQGMILSVVGDGDKIIVPRNVHKSVTAGIILSGAVPVYMHPEVDRRVGIAHGVSPETVGETLKNNPDAKAVLLINPTYYGVSTDIKKIADIVHSYDIPLIVDEAHGPHLSFNDRLPVSALKAGADMCAQSTHKIIGALTQMSLLHVNSDRIDMNRVQQIMNLLQTTSPSYILMASMDCARRQIALHGKELLDGTIDLCNYARREINKIPGFYCFGEEVLGKPGSYAFDPTKLTITCTDLGITGYDLDMLLANDYHIQVELSDLYNVLAVGSFGDTKENIDALINALRQISKSISSTVKNKKNSFIDIPDVPERILSPRDAFNGAKESMLIKDSVGKTSGEFLMAYPPGIPVLCPGEIITQEIIDYVSDLKAAGLYVQGTEDPDVNYIKVLK”, the “soluble on expression in E. coli” value was “not soluble”.
“MASDLESSLTSIDWLPQLTLRATIEKLGSASQAGPPGSSRKCSPGSPTDPNATLSKDEAAVHQDGKPRYSYATLITYAINSSPAKKMTLSEIYRWICDNFPYYKNAGIGWKNSIRHNLSLNKCFRKVPRPRDDPGKGSYWTIDTCPDISRKRRHPPDDDLSQDSPEQEASKSPRGGVAGSGEASLPPEGNPQMSLQSPTSIASYSQGTGSVDGGAVAAGASGRESAEGPPPLYNTNHDFKFSYSEINFQDLSWSFRNLYKSMLEKSSSSSQHGFSSLLGDIPPSNNYYMYQQQQPPPPQQQQQQQQPPQPPPQQSQPQQQQAPAQGPSAVGGAPPLHTPSTDGCTPPGGKQAGAEGYGPPPVMAMHPPPLQHGGYHPHQHHPHSHPAQQPPPPQPQAQGQAPINNTGFAFPSDWCSNIDSLKESFKMVNRLNWSSIEQSQFSELMESLRQAEQKNWTLDQHHIANLCDSLNHFLTQTGHVPPQGGTHRPPAPARIADSCALTSGKQESAMSQVNSYGHPQAPHLYPGPSPMYPIPTQDSAGYNRPAHHMVPRPSVPPPGANEEIPDDFDWDLIT”: the “soluble on expression in E. coli” value is reported as “soluble”.
As for “MSKKFVNKAEEAVDDALFGLVSSNSNVKFHKSCRRVVHITDLNPSHHVSLIAGGGSGHEPYAAGYVGKGLLTAAIAGNVFASPPSRNVQAALEATRGEAGAILFVINYTGDRLNFGLAAERFNASGGTARVVTIADDVAIDSPNSKVGRRGLAGAVLTIKIAGAMAWEGKSLDEIYETSQKVVSSMGTLGVSLYTGSLPGKNRETELPDDQIEVGLGIHGEPGKFRAQFGSANRIVHSLLDTLRSKMEMREGEKFVVLVNNLGSVSQLEMNIVNGEVLRYFEDHKIGITRFFSGIYMTSLDGHGVSVTILRADDSMLQYLDAPAAAPGWIPALSVQKCVDHQEISDSSSQGDLISEIPASGVTVNAQLVEACVGGVVDAMLESEKHLNQLDAYAGDGDCGSTFAGAAEAIRKQTSGLNYTHPETLLKQLSIIFEQTVGGTSGALYALMFSSAAQSFAQRSQRGEKIDRTSILEALDKANRAVQKYGGARVGDRTMVDGLDAMVEELRKGFSGNEESLDAIFEAAVKASEKAAKATASQTATVGRASYTSSEAQTKPDAGATAISLWLRACWTAYKSEK”, the “soluble on expression in E. coli” value is reported as “not soluble”.

Source of the values: the DeepSol protein solubility set.
